Measured values published in article PMC8092703, “Structural Basis for the Shared Neutralization Mechanism of Three Classes of Human Papillomavirus Type 58 Antibodies with Disparate Modes of Binding” (Journal of Virology, 2021).

How the values were obtained:
[1] = biological target: HPV58 virus-like particles (VLPs) self-assembled from recombinant HPV58 L1 (human papillomavirus type 58, UniProt P26535 1-524, The printed source is GenBank AFS33402.1, which may differ from P26535 at isolate-variant positions. The start is taken by convention at MSVWRPSE (Met27 of P26535), and paper numbering + 26 = P26535 n); experiment: ELISA; inhibition ELISA; HPV58 VLPs coated; diluted monoclonal antibody 1 h at 37°C, then rabbit standard antiserum against HPV58 VLPs 30 min at 37°C; HRP goat anti-rabbit IgG; inhibition rate; conditions: both partners purified
[2] = biological target: T1, HPV58 pseudovirus (PsV58) capsid (human papillomavirus type 58, UniProt P26535 1-524; P26538 1-472); experiment: cell-based or functional assay
T1 sequence 1: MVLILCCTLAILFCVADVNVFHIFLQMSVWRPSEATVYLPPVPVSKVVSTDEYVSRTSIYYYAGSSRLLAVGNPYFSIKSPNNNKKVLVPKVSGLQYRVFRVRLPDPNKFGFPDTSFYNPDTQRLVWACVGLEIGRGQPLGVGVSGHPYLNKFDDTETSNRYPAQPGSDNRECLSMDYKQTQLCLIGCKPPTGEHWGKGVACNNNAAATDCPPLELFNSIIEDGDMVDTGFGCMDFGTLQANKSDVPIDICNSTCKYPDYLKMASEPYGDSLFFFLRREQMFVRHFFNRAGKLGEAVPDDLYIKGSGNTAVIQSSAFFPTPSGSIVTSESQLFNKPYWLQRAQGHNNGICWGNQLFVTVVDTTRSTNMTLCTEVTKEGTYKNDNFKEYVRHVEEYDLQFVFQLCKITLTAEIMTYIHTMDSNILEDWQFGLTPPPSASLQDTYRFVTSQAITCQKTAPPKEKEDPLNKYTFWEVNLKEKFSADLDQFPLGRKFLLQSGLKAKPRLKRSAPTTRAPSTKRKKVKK
T1 sequence 2: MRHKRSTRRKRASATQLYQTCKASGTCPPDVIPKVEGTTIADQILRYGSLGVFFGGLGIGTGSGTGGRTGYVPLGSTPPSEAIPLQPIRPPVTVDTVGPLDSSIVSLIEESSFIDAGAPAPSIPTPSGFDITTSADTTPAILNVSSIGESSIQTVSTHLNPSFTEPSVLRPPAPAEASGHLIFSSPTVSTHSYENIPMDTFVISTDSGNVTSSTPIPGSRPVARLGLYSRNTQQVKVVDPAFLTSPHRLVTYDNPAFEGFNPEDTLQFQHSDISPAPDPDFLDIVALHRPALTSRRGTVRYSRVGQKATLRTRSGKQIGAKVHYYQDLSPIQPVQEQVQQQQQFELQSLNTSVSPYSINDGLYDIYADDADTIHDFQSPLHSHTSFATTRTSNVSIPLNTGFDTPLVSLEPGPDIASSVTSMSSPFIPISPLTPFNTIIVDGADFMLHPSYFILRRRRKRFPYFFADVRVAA

[3] = biological target: T2, HPV58 pseudovirus (PsV58) capsid (human papillomavirus type 58, UniProt P26535 1-524; P26538 1-472, T=7d capsid of 72 L1 pentamers. L2 copy number is unknown and no L2 density was seen. Expressed from p58sheLL, whose L1 and L2 may carry isolate-variant residues.); experiment: cell-based or functional assay
[4] = biological target: T2, HPV58 pseudovirus (PsV58) capsid; experiment: cryo-EM structure; purified PsV58 mixed with Fab in 1.5-fold excess (pseudovirus-Fab molar ratio 1:540), 37°C for 2 h; icosahedral and 2-fold subparticle reconstruction; conditions: both partners purified

B1: nAb 5G9 (anti-HPV58 neutralizing monoclonal antibody, full length) (antibody, V domains shown)
VH: EVMLVESGGGLVKPGGSLKLSCVASGFTFSDYAMSWGRQTPEKRLEWVATISSGGVSTYHPDSVKGRFTMSRDNAKNTLYLQMSSLRSEDTAKYYCARGGGRYAMDYWGQGTSVTVS
VL: DVQITQSPSYLAASPGETITINCRASKSINKYLAWYQEKPGTTNKLLIYSGSTLQSGIPSRFSGRGSGTDFTLTISSLEPEDLAVYYCQQYNEYPWTFGGGTKLEIKR
notes: variable domain of the heavy chain of nAb 5G9; variable domain of the light chain of nAb 5G9; Mouse IgG2a; source: mouse hybridoma, ascites of BALB/c mice, purified (protein A-agarose)
With B1 the “inhibition rate of the nAb against rabbit antiserum to HPV58 VLPs” value (shortened to “inhibition rate of the nAb”) [1] was 59% and the “neutralization titer, pseudovirus-based neutralization assay in 293FT cells (first well 1 μg/ml nAb, 2-fold dilutions)” value [2] was 410000.

B2: nAb 2H3 (anti-HPV58 neutralizing monoclonal antibody, full length) (antibody, V domains shown)
VH: QVQLLQSGAELVRPGSSVKISCKASGYVFTSYWMHWVKQRPGQGLEWIGQIYPGDGGTHYNGNFRDKATLTADKSSSTAYMHLSSLTSEDSAVYFCARKIYDGYGFSYWGQGTLVTVS
VL: DIQMTQSPASLSVSVGETVTITCRASENIYSNLIWYQQKQGKSPQLLVYAATNLADGVPSRFSGSGSGTQYSLKINSLQSEDFGSYYCQHFWGTPLTFGAGTKLEIKR
notes: variable domain of the heavy chain of nAb 2H3; variable domain of the light chain of nAb 2H3; Mouse IgG1; source: mouse hybridoma, ascites of BALB/c mice, purified (protein A-agarose)
In the case of B2, the “inhibition rate of the nAb” value [1] is reported as 87% and the “neutralization titer, pseudovirus-based neutralization assay in 293FT cells (first well 1 μg/ml nAb, 2-fold dilutions)” value [2] is reported as 51200.

B3: nAb A4B4 (anti-HPV58 neutralizing monoclonal antibody, full length) (antibody, V domains shown)
VH: QVTLKESGPGILQPSQTLSLTCSFSGFSLSTSGMGVGWIRQPSGKGLEWLAHIWWNDDKNYHPALKSRLTISKDTSSNRVFLNIASVDTADTATYYCARIHYVTDALDYWGQGTSVTVS
VL: DIVMSQSPSSLAVSVGEKVTMSCKSSQSLLYSSIQKNYLAWYQQKPGQSPKLLIYWASIRESGVPDRFTGSGSGTDFTLTISSVKAEDLAVYYCQRYYGYPWTFGGGTKLEIKR
notes: variable domain of the heavy chain of nAb A4B4; variable domain of the light chain of nAb A4B4; Mouse IgG2a; source: mouse hybridoma, ascites of BALB/c mice, purified (protein A-agarose)
B3 was tested, and the “inhibition rate of the nAb” value [1] was 71% and the “neutralization titer, pseudovirus-based neutralization assay in 293FT cells (first well 1 μg/ml nAb, 2-fold dilutions)” value [2] was 12800.

B4: Fab fragment of nAb A4B4 (Fab, V domains shown)
VH: QVTLKESGPGILQPSQTLSLTCSFSGFSLSTSGMGVGWIRQPSGKGLEWLAHIWWNDDKNYHPALKSRLTISKDTSSNRVFLNIASVDTADTATYYCARIHYVTDALDYWGQGTSVTVS
VL: DIVMSQSPSSLAVSVGEKVTMSCKSSQSLLYSSIQKNYLAWYQQKPGQSPKLLIYWASIRESGVPDRFTGSGSGTDFTLTISSVKAEDLAVYYCQRYYGYPWTFGGGTKLEIKR
notes: variable domain of the heavy chain of nAb A4B4; variable domain of the light chain of nAb A4B4; Fab of a mouse IgG2a; the Fab model in the structure is a homology model; also called Fab A4B4; A4B4 Fab; source: papain digest of the purified nAb, separated from Fc on a TSKgel DEAE-5PW column
With B4 the “IC50 of neutralization of PsV58 by the Fab form” value [3] was 1.28 µg/mL and the “stoichiometry N” value [4] was 4 Fabs per asymmetric unit.

B5: Fab fragment of nAb 5G9 (Fab, V domains shown)
VH: EVMLVESGGGLVKPGGSLKLSCVASGFTFSDYAMSWGRQTPEKRLEWVATISSGGVSTYHPDSVKGRFTMSRDNAKNTLYLQMSSLRSEDTAKYYCARGGGRYAMDYWGQGTSVTVS
VL: DVQITQSPSYLAASPGETITINCRASKSINKYLAWYQEKPGTTNKLLIYSGSTLQSGIPSRFSGRGSGTDFTLTISSLEPEDLAVYYCQQYNEYPWTFGGGTKLEIKR
notes: variable domain of the heavy chain of nAb 5G9; variable domain of the light chain of nAb 5G9; Fab of a mouse IgG2a; the Fab model in the structure is a homology model; also called Fab 5G9; 5G9 Fab; source: papain digest of the purified nAb, separated from Fc on a TSKgel DEAE-5PW column
For B5, the “stoichiometry N” value [4] was 1 Fab per capsomer.

B6: Fab fragment of nAb 2H3 (Fab, V domains shown)
VH: QVQLLQSGAELVRPGSSVKISCKASGYVFTSYWMHWVKQRPGQGLEWIGQIYPGDGGTHYNGNFRDKATLTADKSSSTAYMHLSSLTSEDSAVYFCARKIYDGYGFSYWGQGTLVTVS
VL: DIQMTQSPASLSVSVGETVTITCRASENIYSNLIWYQQKQGKSPQLLVYAATNLADGVPSRFSGSGSGTQYSLKINSLQSEDFGSYYCQHFWGTPLTFGAGTKLEIKR
notes: variable domain of the heavy chain of nAb 2H3; variable domain of the light chain of nAb 2H3; Fab of a mouse IgG1; the Fab model in the structure is a homology model; also called Fab 2H3; 2H3 Fab; source: papain digest of the purified nAb, separated from Fc on a TSKgel DEAE-5PW column
With B6 the “stoichiometry N” value [4] was 4 Fabs per asymmetric unit.
